{
  "source": "paper PMC4372062",
  "about": "(Biochemistry, 2014)",
  "molecular_target": "the molecule itself",
  "experiment": "native gel or EMSA",
  "data": [
    {"protein": "Fenna–Matthews–Olson antenna protein (FMO) (natural protein, UniProt Q46393 1-366, looked up) MALFGSNDVTTAHSDYEIVLEGGSSSWGKVKARAKVNAPPASPLLPADCDVKLNVKPLDPAKGFVRISAVFESIVDSTKNKLTIEADIANETKERRISVGEGMVSVGDFSHTFSFEGSVVNLFYYRSDAVRRNVPNPIYMQGRQFHDILMKVPLDNNDLIDTWEGTVKAIGSTGAFNDWIRDFWFIGPAFTALNEGGQRISRIEVNGLNTESGPKGPVGVSRWRFSHGGSGMVDSISRWAELFPSDKLNRPAQVEAGFRSDSQGIEVKVDGEFPGVSVDAGGGLRRILNHPLIPLVHHGMVGKFNNFNVDAQLKVVLPKGYKIRYAAPQYRSQNLEEYRWSGGAYARWVEHVCKGGVGQFEILYAQ", "values": [
      {"measurement": "stoichiometry N", "value": 3}
    ]}
  ]
}
